Assay results reported in US20180346573A1 (I MAB, published 2018).

biological target: human PD-L1 expressed on CHOK1 cells (PDL1-CHOK1 cell line) (human) (UniProt Q9NZQ7); test: FACS on PDL1-CHOK1 cells, MFI of Alexa 488 anti-human IgG; EC50 table under the graph, unit from the x axis Antibodies(nM); fit value of a flat control curve, see non_binding
Sequence (Q9NZQ7 19-290): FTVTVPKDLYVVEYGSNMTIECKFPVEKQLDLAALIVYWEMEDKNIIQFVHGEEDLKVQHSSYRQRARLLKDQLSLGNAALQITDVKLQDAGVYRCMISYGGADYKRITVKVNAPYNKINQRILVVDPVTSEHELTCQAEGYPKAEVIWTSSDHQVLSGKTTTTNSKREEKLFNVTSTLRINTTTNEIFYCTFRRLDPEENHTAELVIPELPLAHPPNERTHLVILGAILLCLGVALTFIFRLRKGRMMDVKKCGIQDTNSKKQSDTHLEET

EC50	Molecule
9.55 µM	Hu IgG (antibody)

biological target: T1, human PD-L1 expressed on CHOK1 cells (PDL1-CHOK1 cell line) (human, UniProt Q9NZQ7 19-290); test: FACS receptor blocking: PDL1-CHOK1 cells, competitor Bio-PD1 (30 µg/ml)
T1 construct: whole, on cells; also called PDL1-CHOK1 cells; PD-L1 expressed on mammalian cells
Protocol: To evaluate the blocking effect of humanized antibodies on human PD-L1 expressed on mammalian cells to bind to its receptor PD-1, the FACS-based receptor blocking assay was employed. Briefly, PDL1-CHOK1 cells were firstly incubated with 3-fold serious diluted HL1210-3 mouse mAb starting at 20 μg/ml at RT for 1 hour. After wash by FACS buffer (PBS with 2% FBS), the biotin-labeled huPD-1 were added to each well and incubated at RT for 1 hour. Then, the Streptavidin-PE were added to each well for 0.5 hour post twice wash with FACS buffer. The mean florescence intensity (MFI) of PE were evaluated by FACSAriaIII.

T1 sequence (Q9NZQ7 19-290): as above

TOP	Molecule
85.8%	Hu1210-22 (antibody, V domains shown) VH: EVQLVESGGGLVQPGGSLRLSCAASGFTFSSYDMSWVRQAPGKSLEWVATISDGGGYIYYSDSVKGRFTISRDNAKNSLYLQMNSLRDEDTAVYICAREFGKRYALDYWGQGTTVTVSS VL: DIQMTQSPSSLSASVGDRVTITCKASQDVTPAVAWYQQKPGKSPKLLIYSTSSRYTGVPSRFSGSGSGTDFTFTISSLQPEDIATYYCQQHYTTPLTFGQGTKLEIK
87.5%	Hu1210-19 (antibody, V domains shown) VH: EVQLLESGGGLVQPGGSLRLSCAASGFTFSSYDMSWVRQAPGKSLEWVATISDGGGYIYYSDSVKGRFTISRDNSKNTLYLQMNSLRAEDTAVYICAREFGKRYALDYWGQGTTVTVSS VL: DIQMTQSPSSLSASVGDRVTITCKASQDVTPAVAWYQQKPGKSPKLLIYSTSSRYTGVPSRFSGSGSGTDFTFTISSLQPEDIATYYCQQHYTTPLTFGQGTKLEIK
88%	Hu1210-16 (antibody, V domains shown) VH: EVQLVESGGGLVQPGGSLRLSCAASGFTFSSYDMSWVRQAPGKGLEWVATISDGGGYIYYSDSVKGRFTISRDNAKNSLYLQMNSLRDEDTAVYYCAREFGKRYALDYWGQGTTVTVSS VL: DIQMTQSPSSLSASVGDRVTITCKASQDVTPAVAWYQQKPGKAPKLLIYSTSSRYTGVPSRFSGSGSGTDFTFTISSLQPEDIATYYCQQHYTTPLTFGQGTKLEIK
104%	Hu1210-27 (antibody, V domains shown) VH: EVQLVESGGGLVQPGGSLRLSCAASGFTFSSYDMSWVRQAPGKGLEWVATISDGGGYIYYSDSVKGRFTISRDNAKNSLYLQMNSLRAEDTAVYICAREFGKRYALDYWGQGTLVTVSS VL: DIQMTQSPSSLSASVGDRVTITCKASQDVTPAVAWYQQKPGKAPKLLIYSTSSRYTGVPSRFSGSGSGTDFTLTISSLQPEDFATYYCQQHYTTPLTFGQGTKLEIKR
80.9%	Hu1210-17 (antibody, V domains shown) VH: EVQLVESGGGLVQPGGSLRLSCAASGFTFSSYDMSWVRQAPGKSLEWVATISDGGGYIYYSDSVKGRFTISRDNAKNSLYLQMNSLRDEDTAVYICAREFGKRYALDYWGQGTTVTVSS VL: DIQMTQSPSSLSASVGDRVTITCKASQDVTPAVAWYQQKPGKAPKLLIYSTSSRYTGVPSRFSGSGSGTDFTFTISSLQPEDIATYYCQQHYTTPLTFGQGTKLEIK
91.8%	Hu1210-36 (antibody, V domains shown) VH: EVQLVESGGGLVQPGGSLRLSCAASGFTFSSYDMSWVRQTPEKSLEWVATISDGGGYIYYSDSVKGRFTISRDNAKNNLYLQMNSLRAEDTAVYICAREFGKRYALDYWGQGTLVTVSS VL: DIQMTQSPSSLSASVGDRVTITCKASQDVTPAVAWYQQKPGKAPKLLIYSTSSRYTGVPSRFSGSGSGTDFTLTISSLQPEDFATYYCQQHYTTPLTFGQGTKLEIKR

The remaining lines, values behind:

Molecule	TOP
H1210 chimera (antibody, V domains shown, also called chimeric antibody) VH: EVKLVESGGDLVKPGGSLKLSCAASGFTFSSYDMSWVRQTPEKSLEWVATISDGGGYIYYSDSVKGRFTISRDNAKNNLYLQMSSLRSEDTALYICAREFGKRYALDYWGQGTSVTVSS VL: DIVMTQSHKFMSTSVGDRVSISCKASQDVTPAVAWYQQKPGQSPKLLIYSTSSRYTGVPDRFTGSGSGTDFTFTISSVQAEDLAVYYCQQHYTTPLTFGAGTKLELK	87.2%
Hu1210-3 (antibody, V domains shown, Not the mouse mAb HL1210-3) VH: EVQLVESGGGLVKPGGSLRLSCAASGFTFSSYDMSWVRQAPGKSLEWVATISDGGGYIYYSDSVKGRFTISRDNAKNSLYLQMNSLRAEDTAVYICAREFGKRYALDYWGQGTTVTVSS VL: DIQMTQSPSSLSASVGDRVTITCKASQDVTPAVAWYQQKPGKAPKLLIYSTSSRYTGVPSRFSGSGSGTDFTFTISSLQPEDIATYYCQQHYTTPLTFGQGTKLEIK	84.3%
Hu1210-14 (antibody, V domains shown) VH: EVQLLESGGGLVQPGGSLRLSCAASGFTFSSYDMSWVRQAPGKSLEWVATISDGGGYIYYSDSVKGRFTISRDNSKNTLYLQMNSLRAEDTAVYICAREFGKRYALDYWGQGTTVTVSS VL: DIQMTQSPSSLSASVGDRVTITCKASQDVTPAVAWYQQKPGKAPKLLIYSTSSRYTGVPSRFSGSGSGTDFTFTISSLQPEDIATYYCQQHYTTPLTFGQGTKLEIK	79.6%
Hu1210-8 (antibody, V domains shown) VH: EVQLVESGGGLVKPGGSLRLSCAASGFTFSSYDMSWVRQAPGKGLEWVATISDGGGYIYYSDSVKGRFTISRDNAKNSLYLQMNSLRAEDTAVYYCAREFGKRYALDYWGQGTTVTVSS VL: DIQMTQSPSSLSASVGDRVTITCKASQDVTPAVAWYQQKPGKSPKLLIYSTSSRYTGVPSRFSGSGSGTDFTFTISSLQPEDIATYYCQQHYTTPLTFGQGTKLEIK	86.3%
Hu1210-31 (antibody, V domains shown) VH: EVQLVESGGGLVQPGGSLRLSCAASGFTFSSYDMSWVRQAPGKGLEWVATISDGGGYIYYSDSVKGRFTISRDNAKNSLYLQMNSLRAEDTAVYICAREFGKRYALDYWGQGTTVTVSS VL: DIQMTQSPSSLSASVGDRVTITCKASQDVTPAVAWYQQKPGKAPKLLIYSTSSRYTGVPSRFSGSGSGTDFTLTISSLQPEDFATYYCQQHYTTPLTFGQGTKLEIKR	92.9%
